Paper PMC10933337, “RhoGDI phosphorylation by PKC promotes its interaction with death receptor p75^NTR to gate axon growth and neuron survival” (EMBO Reports, 2024)

Tests used:
p75NTR [1] = molecular target: p75NTR (UniProt Q9Z0W1); experiment: p75NTR IP, Flag-RhoGDI immunoblot; settings: reference: wild type RhoGDI; sites S34
p75NTR [2] = molecular target: p75NTR (UniProt Q9Z0W1); experiment: p75NTR IP, Flag immunoblot; settings: reference: RhoGDI-59 wild type, PMA; sites S34
[3] = molecular target: T1, human p75^NTR JXT domain (K273-D332) (human, UniProt P08138 273-332); experiment: NMR titration; unlabeled p75NTR JXT titrated to 15N-labeled RhoGDI NTD S34D, [1H-15N] HSQC, 28 °C, 10 mM PIPES pH 6.8; 0.3 mM RhoGDI NTD and 1.5 mM p75NTR JXT; settings: both partners purified
T1 construct: juxtamembrane domain of human p75NTR, K273-D332, ~6.6 kDa; Cloned in a pET-32a-derived vector; unlabeled or 15N,13C-labeled for NMR; source: E. coli BL21 (DE3), purified (Ni-NTA, TEV cleavage, gel filtration, MonoS ion exchange)
T1 sequence (looked up): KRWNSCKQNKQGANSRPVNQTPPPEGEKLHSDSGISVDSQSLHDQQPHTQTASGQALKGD

RhoGDI (from UniProt Q99PT1) S34A
binding against the reference (p75NTR [1]): weaker

RhoGDI RhoGDI-59, 59 N-terminal residues (fused to GST) (from UniProt Q99PT1) RhoGDI-59 S34A, PMA
binding against the reference (p75NTR [2]): lost

B1: human RhoGDI NTD^S34D (A2-A60) (domain or fragment, UniProt P52565 2-60, looked up)
chain: AEQEPTAEQLAQIAAENEEDEHSVNYKPPAQKDIQEIQELDKDDESLRKYKEALLGRVA
notes: N-terminal domain of RhoGDI, A2-A60, ~6.8 kDa, with the phosphorylation-mimetic mutation S34D; Cloned in a pET-32a-derived vector; 15N- or 15N,13C-labeled or unlabeled for NMR; source: E. coli BL21 (DE3), purified (Ni-NTA, TEV cleavage, gel filtration, MonoQ ion exchange)
binding result [3]: binds
